From paper doi:10.1101/2025.09.11.675134, “Biodistribution-Driven Discovery Identifies a Glycosidase-Cleavable Linker to Reprogram Radiotheranostics” (bioRxiv, 2025)
Read-outs that look alike come from different tables or passages of the source.

Experiments:
[1] = Ex vivo biodistribution of 86Y-labeled variants in AR42J tumor-bearing mice; conditions: athymic nude, mouse, iv, 1 ug, total radioactivity, mean; for tissue uptake at 1 h: 1 h post-injection; for tissue uptake at 4 h: 4 h post-injection; for tissue uptake at 24 h: 24 h post-injection
Procedure: To independently confirm these observations, ex vivo biodistribution studies were conducted using the same ^86Y-labeled compounds at matched timepoints (Fig. S16; Table S3). […]
For studies involving three variants (DOTA -TATE, DOTA-MVK(ε)-TATE, and DOTA-β-Gal-TATE), AR42J cells (5 × 10^6 cells per mouse) were subcutaneously inoculated into the right shoulder of the mice. Tumors were allowed to grow for 3 weeks, reaching a volume of 100 –200 mm³ before being used in subsequent experiments. For biodistribution or PET imaging studies, mice bearing subcutaneous AR42J tumors were administered 1.4 – 1.8 MBq (1 μg) of 111In-labeled DOTA-TATE variants or 2.7 – 4.9 MBq (1 μg) of 86Y-labeled DOTA-TATE variants via tail vein injection. Biodistribution studies with 111In-labeled DOTA -TATE variants were performed 1 hour post -injection (n = 3 per cohort), while studies with 86Y-labeled DOTA-TATE variants were conducted at 1, 4, and 24 hours post -injection (n = 3 per cohort). Mice were euthanized by CO2 asphyxiation, and 10 tissues, including tumors, were collected. All samples were weighed and counted on a gamma counter (2480 Wizard 3, Perkin Elmer Inc., Waltham, MA, USA). Results are presented as percentage of injected activity per gram (%IA/g) and mean values ± standard deviations. […]

[2] = PET/CT quantification of 86Y-labeled variants in AR42J xenograft mice; assay type: in vivo; conditions: athymic nude, mouse, in vivo, iv, total radioactivity
Procedure: For studies involving three variants (DOTA -TATE, DOTA-MVK(ε)-TATE, and DOTA-β-Gal-TATE), AR42J cells (5 × 10^6 cells per mouse) were subcutaneously inoculated into the right shoulder of the mice. Tumors were allowed to grow for 3 weeks, reaching a volume of 100 –200 mm³ before being used in subsequent experiments. For biodistribution or PET imaging studies, mice bearing subcutaneous AR42J tumors were administered 1.4 – 1.8 MBq (1 μg) of 111In-labeled DOTA-TATE variants or 2.7 – 4.9 MBq (1 μg) of 86Y-labeled DOTA-TATE variants via […]
tail vein injection. […]
PET imaging to assess the uptake of three 86Y-labeled DOTA-TATE variants (2.7 – 4.9 MBq, 1 μg) in the kidney and tumor was performed at 1, 4, and 24 hours post-injection (n = 3 per cohort) in mice bearing AR42J tumors using the MRS*PET/CT 120 scanner (MR Solutions, Guildford, UK). PET/CT data acquisition was managed using Preclinical Scan software (version 4.2.4.0, MR Solutions). Mice were anesthetized with 2% isoflurane, and static PET sc ans were acquired over 10 min. CT scans were obtained for attenuation correction and anatomical co-registration.
PET data were reconstructed using three-dimensional ordered-subsets expectation maximization, and were subsequently normalized, decay - and dead-time–corrected prior to analysis. PET/CT images were analyzed using MIM software (version 7.2.7, MIM Software Inc., Beachwood, OH, USA), and the quantitative evaluation of the maximum standardized uptake (SUVmax) and the average standardized uptake values (SUVmean) in the kidney and tumor were also performed. […]

[3] = blood, ex vivo, n = 3, read-out: Blood uptake
[4] = femur, ex vivo, n = 3, read-out: Femur uptake
[5] = heart, ex vivo, n = 3, read-out: Heart uptake
[6] = intestine, ex vivo, n = 3, read-out: Intestine uptake
[7] = ex vivo, n = 3, read-out: Tumor uptake
[8] = kidney, ex vivo, n = 3, read-out: Kidney uptake
[9] = liver, ex vivo, n = 3, read-out: Liver uptake
[10] = lung, ex vivo, n = 3, read-out: Lung uptake
[11] = muscle, ex vivo, n = 3, read-out: Muscle uptake
[12] = spleen, ex vivo, n = 3, read-out: Spleen uptake

Molecule `CSCC[C@H](NC(=O)CN1CCN(CC(=O)O)CCN(CC(=O)O)CCN(CC(=O)O)CC1)C(=O)N[C@H](C(=O)N[C@@H](CCCCNC(=O)CCCC(=O)N[C@H](Cc1ccccc1)C(=O)N[C@H]1CSSC[C@@H](C(=O)N[C@H](C(=O)O)[C@@H](C)O)NC(=O)[C@H]([C@@H](C)O)NC(=O)[C@H](CCCCN)NC(=O)[C@@H](Cc2c[nH]c3ccccc23)NC(=O)[C@H](Cc2ccc(O)cc2)NC1=O)C(=O)O)C(C)C` [^86Y-DOTA-MVK(ε)-TATE, metal not drawn] has a tissue uptake at 1 h ([1]; blood, i.v. 1 μg (2.7–4.9 MBq), ex vivo gamma counting, n = 3, read-out: Blood uptake) of 0.32 %ID/g, a tissue uptake at 4 h [1, 3] of 0.17 %ID/g and a tissue uptake at 24 h [1, 3] of 0.02 %ID/g. It also gave a tissue uptake at 1 h [1, 4] of 0.52 %ID/g, a tissue uptake at 4 h [1, 4] of 0.21 %ID/g and a tissue uptake at 24 h [1, 4] of 0.2 %ID/g. The tissue uptake at 1 h [1, 5] was 0.35 %ID/g, the tissue uptake at 4 h [1, 5] was 0.24 %ID/g and the tissue uptake at 24 h [1, 5] was 0.08 %ID/g. It also gave a tissue uptake at 1 h [1, 6] of 0.69 %ID/g, a tissue uptake at 4 h [1, 6] of 0.46 %ID/g and a tissue uptake at 24 h [1, 6] of 0.05 %ID/g. For the same molecule, the tissue uptake at 1 h [1, 7] was 5.02 %ID/g, the tissue uptake at 4 h [1, 7] was 5.08 %ID/g and the tissue uptake at 24 h [1, 7] was 4.53 %ID/g. For the same molecule, the tissue uptake at 1 h [1, 8] was 4.12 %ID/g, the tissue uptake at 4 h [1, 8] was 3.78 %ID/g and the tissue uptake at 24 h [1, 8] was 1.66 %ID/g. It also gave a tissue uptake at 1 h [1, 9] of 0.17 %ID/g, a tissue uptake at 4 h [1, 9] of 0.15 %ID/g and a tissue uptake at 24 h [1, 9] of 0.06 %ID/g. The tissue uptake at 1 h [1, 10] was 0.79 %ID/g, the tissue uptake at 4 h [1, 10] was 0.47 %ID/g and the tissue uptake at 24 h [1, 10] was 0.13 %ID/g. For the same molecule, the tissue uptake at 1 h [1, 11] was 0.45 %ID/g, the tissue uptake at 4 h [1, 11] was 0.23 %ID/g and the tissue uptake at 24 h [1, 11] was 0.09 %ID/g. For the same molecule, the tissue uptake at 1 h [1, 12] was 0.25 %ID/g, the tissue uptake at 4 h [1, 12] was 0.22 %ID/g and the tissue uptake at 24 h [1, 12] was 0.14 %ID/g. For the same molecule, the SUV at 4 h ([2]; Kidney SUVmax) was 0.42 ± 0.07 SUV, the SUV at 24 h ([2]; Kidney SUVmax) was 0.21 ± 0.01 SUV and the SUV at 1 h ([2]; Tumor SUVmax) was 1.31 ± 0.06 SUV. It also gave an SUV at 4 h ([2]; Tumor SUVmax) of 1.06 ± 0.14 SUV and an SUV at 24 h ([2]; Tumor SUVmax) of 1.04 ± 0.13 SUV.
